This is an account of results in patent US20060057632A1 (KEIO UNIVERSITY, published 2006).

This experiment has as its target T1, peptide TM1 (N'-TRVTSFLDWIHEQMERDLKT-C').
T1 construct: Peptide antigen coated on the plate
T1 peptide: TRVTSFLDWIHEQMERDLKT
The experiment can be described thus: binding implied by the name and by sequencing of ELISA positive clones (phage ELISA on coated TM1); not said in so many words. In general terms: ELISA stands for enzyme-linked immunosorbent assay.

B1: TM1 scFV (scFv)
scFv: ETTLTQSPSSLSASVGDRVTITCRTSQTINNYLNWYQQKPGKAPKVLIFGASRLQSGVPSRFSGSGSGTHFTLTITSLQPEDVATYYCQQSYGTPYTFGQGTKVEIKVDITSYNVYYTKLSLEQVQLQQWGAGLLKPSETLSLTCAIYNGSFGGYYWNWIRQPPGKGLEWIGEINQRESTNFNPSFKSRVTMSVDTSNNQFSLRLSSLTAADTAVYFCARGLYYDTTGFFDAFAVWGQGTTVTVSHLGLMGHHHHHH
Consider B1, for which the binding result was “binds”.
